Source: patent US20250325680A1, “HIGH-PERMEABILITY PROTEIN OR POLYPEPTIDE CONJUGATE AND USE THEREOF” (Hangzhou Tito Biotechnology Partnership Enterprise ( …, priority 2023, published 2025)

Tests used:
[1] = Skin permeation experiment; format: in vivo, C57BL/6 mice; conditions: mouse dorsal skin, 4 h after administration, laser confocal
Protocol: C57BL/6 mice each with a body weight of 20 g were selected and randomly divided into four groups. The hair on the back of each mouse was removed with a depilatory cream. After 24 h of raising, a silicone diffusion cell was fixed on the back, and Cy5-labeled ^Cy5BSA and ^Cy5BSA-OPDMA were added at equal amounts. 4 h after the administration, the dorsal skin of each mouse was carefully collected, rinsed 3 times with PBS, and sectioned by a freezing microtome to produce 20 μm-thick skin sections. A skin permeation effect of each solution was observed under a laser scanning confocal microscope.

[2] = Intraocular permeation experiment after eye-dropping administration; format: in vivo; conditions: mouse, 4 h, laser confocal imaging of eyeball sections
Protocol: 6.6 mg of BSA ([…]) was dissolved in 1 mL of PBS at pH 7.4, 66 μg of a fluorescent dye Cy5-NHS was added, and stirring was conducted for 6 h at room temperature. Ultrafiltration-washing was repeated multiple times to produce fluorescently-labeled ^Cy5BSA. The conjugate ^Cy5BSA-OPDMA and other protein conjugates were labeled by the same method.
Upper and lower eyelids of each mouse were gently pulled open with a cotton swab. Solutions of ^Cy5BSA and ^Cy5BSA-OPDMA in PBS each were dropped to a conjunctival sac of a mouse, and a few seconds later, eyelids were slowly closed. At 4 h after the eye-dropping administration, eyeballs were immediately collected, washed three times with PBS, fixed overnight in an FAS eyeball fixative solution, and then transferred to a 30% sucrose solution for dehydration. When sank to a bottom of the solution, eyeballs were carefully taken out, embedded with an optimal cutting temperature (OCT) embedding medium, and sectioned by a freezing microtome to produce 10 μm-thick eyeball sections. The eyeball sections were stained with a 4′,6-diamidino-2-phenylindole (DAPI) dye, and finally the fluorescence distributions of each solution in eyeballs and retinas were observed under a laser scanning confocal microscope. The fluorescence distribution inside a retina of a mouse eyeball was analyzed with Image J.

CT26 tumor spheres = experiment: Permeation in multicellular tumor spheres; format: cell-based; conditions: BSA 20 μg/mL, 2 h incubation
Protocol: The permeability of albumin and a conjugate BSA-OPDMA thereof was verified with multicellular tumor spheres. 1.0 mL of DMEM and the prepared CT26 tumor spheres were added to a confocal imaging dish, and then 20 μL of ^Cy5BSA-OPDMA or ^Cy5BSA was added (where a concentration of BSA was 20 μg/mL). After being incubated for 2 h, tumor spheres were subjected to laser scanning confocal microscopy imaging every 20 μm along a Z-axis. […] Moreover, the more the OPDMA bonded, the stronger the promotion on the permeability of BSA. […] OPDMA with a molecular weight of 10 k could more efficiently promote the penetration of ^Cy5BSA than OPDMA with a molecular weight of 5 k. This conclusion was further confirmed by the quantitative fluorescence data in FIG. 13.

laser-induced CNV model = experiment: Laser-induced choroidal neovascularization (CNV) model, eye drops; format: in vivo, C57BL/6J mice; conditions: eye drops 2 μL, 10 mg/ml of aflibercept, four times a day for 7 d, day 7
Source text: 40 female C57BL/6J mice at 6 to 8 weeks were selected, and the anterior segments of both eyes and the fundus were examined to be normal before the experiment. An unilateral eye of each mouse was selected and subjected to laser photocoagulation to establish a CNV model, where a corresponding contralateral eye was not treated. Then treated mice were randomly divided into a PBS group, an aflibercept-OPDMA conjugate group, an OPDMA+aflibercept mixture group, and an aflibercept intravitreal injection group. Immediately after the laser photocoagulation, mice in each group were administered with eye drops at a dose of (2 μL, 10 mg/ml of aflibercept) four times a day consecutively for 7 d. For the injection group, a dose was 10 μg/mouse, and the injection was conducted merely once during the experiment. After laser photocoagulation, on day 7 post-modeling, choroidal flat mounts were prepared from the experimental eyes. The flat mounts were subjected to antibody staining using IB4 and imaged under a fluorescence microscope. Thee neovascularization area was measured using image J software. These indices were used to assess the treatment efficacy of each group.

| Substance | skin permeation effect (fluorescence in skin sections) [1] | intraocular permeation (fluorescence distribution in eyeballs and retinas) [2] | permeation in tumor spheres (fluorescence) (CT26 tumor spheres) | therapeutic effect on CNV (neovascularization area) (laser-induced CNV model) | therapeutic effect on CNV (neovascularization area) (laser-induced CNV model; listed as aflibercept-OPDMA conjugate) |
| --- | --- | --- | --- | --- | --- |
| aflibercept: the protein (aflibercept) itself | cannot permeate into the skin |  |  |  |  |
| ^Cy5BSA: BSA fluorescently labeled with Cy5-NHS [reference compound] | faint red fluorescence was observed merely in a surface layer of the skin | only adhered to a surface of an eyeball | could only reach the edges of tumor spheres |  |  |
| aflibercept-OPDMA: conjugate of aflibercept with tertiary amine oxide polymer OPDMA |  | had a similar intraocular permeation ability |  | could indeed exert a therapeutic effect after being dropped to eyes | prominent therapeutic effect |
| ^Cy5BSA-OPDMA: Cy5-labeled conjugate of BSA with OPDMA; chain number and weight not stated in the text | the fluorescence could penetrate into the deep skin | could penetrate into intraocular cells, especially a retina in a posterior segment of an eye | presented a strong red fluorescence within tumor spheres |  |  |
